Experiments:
[1] = molecular target: Prey 2832217 protein (C11orf15 protein) (human) (UniProt Q9NQ34); experiment: yeast two-hybrid (PathCalling)
[2] = molecular target: Cadherin 11 (human) (UniProt P55287); experiment: yeast two-hybrid (PathCalling)
[3] = molecular target: Lumican (human) (UniProt P51884); experiment: yeast two-hybrid (PathCalling); forty-eight independent experiments
Sequence of UniProt P51884 (P51884 217-338 limits assumed, form in doubt): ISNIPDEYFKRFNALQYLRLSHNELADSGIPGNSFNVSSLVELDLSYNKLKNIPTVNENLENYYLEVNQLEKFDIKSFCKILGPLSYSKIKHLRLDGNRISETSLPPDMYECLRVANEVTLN

Sequence of UniProt Q9NQ34 (Q9NQ34 35-167 limits assumed, form in doubt): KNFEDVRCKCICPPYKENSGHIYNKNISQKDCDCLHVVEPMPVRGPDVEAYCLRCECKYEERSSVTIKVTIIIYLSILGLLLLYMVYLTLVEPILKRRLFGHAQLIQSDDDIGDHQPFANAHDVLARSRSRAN
Sequence of UniProt P55287 (P55287 154-796 limits assumed, form in doubt): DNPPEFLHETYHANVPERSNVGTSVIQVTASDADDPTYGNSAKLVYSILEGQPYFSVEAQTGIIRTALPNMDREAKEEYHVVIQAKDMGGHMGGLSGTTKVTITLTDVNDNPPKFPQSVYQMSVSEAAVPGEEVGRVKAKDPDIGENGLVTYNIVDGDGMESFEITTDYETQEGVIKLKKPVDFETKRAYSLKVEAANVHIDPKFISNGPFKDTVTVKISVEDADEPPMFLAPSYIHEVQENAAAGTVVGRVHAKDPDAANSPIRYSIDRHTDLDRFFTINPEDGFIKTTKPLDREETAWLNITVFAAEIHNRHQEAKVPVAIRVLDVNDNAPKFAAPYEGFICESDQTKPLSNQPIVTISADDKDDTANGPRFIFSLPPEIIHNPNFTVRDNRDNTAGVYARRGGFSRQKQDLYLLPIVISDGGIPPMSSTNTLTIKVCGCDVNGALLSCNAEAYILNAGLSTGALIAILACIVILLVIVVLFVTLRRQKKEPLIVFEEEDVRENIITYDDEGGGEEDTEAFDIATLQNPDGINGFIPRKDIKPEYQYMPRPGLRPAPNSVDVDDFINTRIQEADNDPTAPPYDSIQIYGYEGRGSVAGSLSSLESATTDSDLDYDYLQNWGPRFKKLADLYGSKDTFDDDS

interaction rating score [1]: 9.6
interaction rating score [2]: 2.7
interaction rating score [3]: 9.99
Substance: CG54020 (EPHA8), ephrin type-A receptor 8 (from UniProt P29322 28-207)

From US20040018199A1
